In the Immune Epitope Database (IEDB):

Assays:
HLA-A*01:01 = experiment: IEDB peptide-MHC binding, purified MHC/direct/fluorescence; filed as Kd, often an IC50 or EC50 that approximates it; ≥ and ≤ were set here for values at or beyond the usual limits of such assays
HLA-A*02:01 [1] = experiment: as above
HLA-A*03:01 = experiment: as above
HLA-A*31:01 [2] = experiment: as above
HLA-B*07:02 [3] = experiment: as above
HLA-B*15:01 [4] = experiment: as above
HLA-B*27:05 = experiment: as above
HLA-B*39:01 = experiment: as above; details: source organism: Mycobacterium tuberculosis str. Haarlem
HLA-B*44:02 = experiment: as above
HLA-B*46:01 = experiment: as above
HLA-B*57:01 = experiment: as above; details: source organism: Mycobacterium tuberculosis str. Haarlem
HLA-B*58:01 = experiment: as above
HLA-C*07:02 = experiment: as above
HLA-C*12:03 = experiment: as above; details: source organism: Homo sapiens
HLA-A*02:01 [5] = experiment: IEDB peptide-MHC binding, purified MHC/competitive/radioactivity; ≥ and ≤ were set here for values at or beyond the usual limits of such assays
HLA-A*24:02 [6] = experiment: IEDB peptide-MHC binding, purified MHC/direct/fluorescence; filed as Kd, often an IC50 or EC50 that approximates it; ≥ and ≤ were set here for values at or beyond the usual limits of such assays
HLA-C*05:01 = experiment: as above
HLA-C*15:02 = experiment: as above
HLA-A*69:01 = experiment: as above
HLA-A*11:01 [7] = experiment: as above
HLA-B*08:02 = experiment: as above; details: source organism: Giardia lamblia ATCC 50803
HLA-B*15:09 = experiment: as above
HLA-B*18:01 = experiment: as above; details: source organism: Giardia lamblia ATCC 50803
HLA-B*40:01 = experiment: as above
HLA-B*08:01 = experiment: IEDB peptide-MHC binding, purified MHC/competitive/fluorescence; ≥ and ≤ were set here for values at or beyond the usual limits of such assays
HLA-A*02:01 [8] = experiment: IEDB peptide-MHC binding, purified MHC/competitive/fluorescence; filed as Kd, often an IC50 or EC50 that approximates it; ≥ and ≤ were set here for values at or beyond the usual limits of such assays
HLA-A*02:06 = experiment: as above; details: source organism: Burkholderia orbicola
HLA-A*26:01 = experiment: IEDB peptide-MHC binding, purified MHC/direct/fluorescence; filed as Kd, often an IC50 or EC50 that approximates it; ≥ and ≤ were set here for values at or beyond the usual limits of such assays; details: source organism: Vibrio vulnificus CMCP6
HLA-C*14:02 = experiment: as above
HLA-B*07:02 [9] = experiment: IEDB peptide-MHC binding, purified MHC/competitive/fluorescence; filed as Kd, often an IC50 or EC50 that approximates it; ≥ and ≤ were set here for values at or beyond the usual limits of such assays; details: source organism: Yersinia pestis Nepal516
HLA-B*51:01 = experiment: as above; details: source organism: Yersinia pestis Nepal516
HLA-A*02:01 [10] = experiment: IEDB peptide-MHC binding, purified MHC/competitive/fluorescence; ≥ and ≤ were set here for values at or beyond the usual limits of such assays; details: source organism: Zaire ebolavirus
HLA-A*24:02 [11] = experiment: as above; details: source organism: Zaire ebolavirus
HLA-B*15:01 [12] = experiment: as above; details: source organism: Zaire ebolavirus
HLA-A*68:02 = experiment: IEDB peptide-MHC binding, purified MHC/competitive/fluorescence; filed as Kd, often an IC50 or EC50 that approximates it; ≥ and ≤ were set here for values at or beyond the usual limits of such assays; details: source organism: Campylobacter jejuni subsp. jejuni 81-176
HLA-C*06:02 = experiment: IEDB peptide-MHC binding, purified MHC/direct/fluorescence; filed as Kd, often an IC50 or EC50 that approximates it; ≥ and ≤ were set here for values at or beyond the usual limits of such assays; details: source organism: Influenza A virus (A/chicken/Fujian/25/00(H9N2))
HLA-A*11:01 [13] = experiment: IEDB peptide-MHC binding, purified MHC/competitive/fluorescence; filed as Kd, often an IC50 or EC50 that approximates it; ≥ and ≤ were set here for values at or beyond the usual limits of such assays; details: source organism: Listeria monocytogenes serotype 4b str. CLIP 80459
HLA-A*31:01 [14] = experiment: as above; details: source organism: Listeria monocytogenes serotype 4b str. CLIP 80459
HLA-A*68:23 = experiment: as above; details: source organism: Listeria monocytogenes serotype 4b str. CLIP 80459
HLA-B*15:42 = experiment: as above; details: source organism: Listeria monocytogenes serotype 4b str. CLIP 80459
HLA-B*45:06 = experiment: as above; details: source organism: Listeria monocytogenes serotype 4b str. CLIP 80459
HLA-B*83:01 = experiment: as above; details: source organism: Listeria monocytogenes serotype 4b str. CLIP 80459
[15] = source organism: Mycobacterium tuberculosis str. Haarlem
[16] = source organism: Listeria monocytogenes EGD-e
[17] = source organism: Vibrio cholerae
[18] = source organism: Giardia lamblia ATCC 50803
[19] = source organism: Vibrio vulnificus
[20] = source organism: Yersinia pestis Nepal516
[21] = source organism: Zaire ebolavirus
[22] = source organism: Influenza A virus (A/chicken/Fujian/25/00(H9N2))

Question: With FHARFVQAL as the sequence, how does the Kd (HLA-A*01:01; [15]) read?
Answer: ≥ 20000 nM

Question: What about the Kd (HLA-A*02:01 [1]; [15]) of the same sequence?
Answer: ≥ 20000 nM

Question: And the Kd (HLA-A*03:01; [15])?
Answer: ≥ 20000 nM

Question: And the Kd (HLA-A*31:01 [2]; [15])?
Answer: ≥ 20000 nM

Question: And the Kd (HLA-B*07:02 [3]; [15])?
Answer: ≥ 20000 nM

Question: What about the Kd (HLA-B*15:01 [4]; [15]) of the same sequence?
Answer: ≥ 20000 nM

Question: What about the Kd (HLA-B*27:05; [15]) of the same sequence?
Answer: ≥ 20000 nM

Question: And the Kd (HLA-B*39:01)?
Answer: 55.6 nM

Question: And the Kd (HLA-B*44:02; [15])?
Answer: ≥ 20000 nM

Question: What about the Kd (HLA-B*46:01; [15]) of the same sequence?
Answer: ≥ 20000 nM

Question: And the Kd (HLA-B*57:01)?
Answer: ≥ 20000 nM

Question: What about the Kd (HLA-B*58:01; [15]) of the same sequence?
Answer: ≥ 20000 nM

Question: Which results are given for FLLENAAYL?
Answer: Kd (HLA-C*07:02; source organism: Homo sapiens): 354 nM; Kd (HLA-C*12:03): 291 nM

Question: For FLPNDFFPSV, which IC50 (HLA-A*02:01 [5]; source organism: Hepatitis B virus) is on record?
Answer: 1.1 nM

Question: How did the IC50 (HLA-A*02:01 [5]; source organism: Human papillomavirus 16) turn out when HVDIRTLED was run?
Answer: 25000 nM

Question: How did the Kd (HLA-A*24:02 [6]; source organism: Toxoplasma gondii) turn out when ISPRNYFTF was run?
Answer: ≤ 1 nM

Question: KAAETYHVF was tested. Which Kd (HLA-B*58:01; source organism: Listeria monocytogenes) did it give?
Answer: 22 nM

Question: And the Kd (HLA-C*05:01; [16])?
Answer: ≥ 20000 nM

Question: And the Kd (HLA-C*15:02; [16])?
Answer: 36 nM

Question: How did the IC50 (HLA-A*02:01 [5]; source organism: Homo sapiens) turn out when KLIDRTESL was run?
Answer: 102 nM

Question: KLTEEIIKL was tested. Which Kd (HLA-A*02:01 [1]; [17]) did it give?
Answer: 42.1 nM

Question: And the Kd (HLA-A*69:01; [17])?
Answer: 2210 nM

Question: What about the Kd (HLA-C*15:02; source organism: Vibrio cholerae MAK 757) of the same sequence?
Answer: ≥ 20000 nM

Question: KRVDWSVEY was tested. Which Kd (HLA-A*11:01 [7]; source organism: SARS-CoV1) did it give?
Answer: 8740 nM

Question: What about the Kd (HLA-B*15:01 [4]; source organism: SARS-CoV1) of the same sequence?
Answer: 2720 nM

Question: And the Kd (HLA-B*27:05; source organism: SARS-CoV1)?
Answer: 258 nM

Question: What about the Kd (HLA-C*07:02; source organism: SARS-CoV1) of the same sequence?
Answer: 261 nM

Question: Which Kd (HLA-A*24:02 [6]; source organism: Bacillus cereus 03BB108) does the source give for LYLYVPFLW here?
Answer: 55 nM

Question: How did the Kd (HLA-A*01:01; [18]) turn out when MIYELCTFR was run?
Answer: ≥ 20000 nM

Question: What about the Kd (HLA-A*02:01 [1]; [18]) of the same sequence?
Answer: ≥ 20000 nM

Question: And the Kd (HLA-A*03:01; [18])?
Answer: 844 nM

Question: And the Kd (HLA-B*07:02 [3]; [18])?
Answer: ≥ 20000 nM

Question: What about the Kd (HLA-B*08:02) of the same sequence?
Answer: ≥ 20000 nM

Question: And the Kd (HLA-B*15:01 [4]; [18])?
Answer: ≥ 20000 nM

Question: What about the Kd (HLA-B*15:09; [18]) of the same sequence?
Answer: ≥ 20000 nM

Question: What about the Kd (HLA-B*18:01) of the same sequence?
Answer: ≥ 20000 nM

Question: And the Kd (HLA-B*27:05; [18])?
Answer: ≥ 20000 nM

Question: What about the Kd (HLA-B*40:01; [18]) of the same sequence?
Answer: ≥ 20000 nM

Question: What about the Kd (HLA-B*44:02; [18]) of the same sequence?
Answer: ≥ 20000 nM

Question: What about the Kd (HLA-B*58:01; [18]) of the same sequence?
Answer: ≥ 20000 nM

Question: Which IC50 (HLA-B*08:01; source organism: Vaccinia virus Copenhagen) does the source give for MLYQLLEAV here?
Answer: ≥ 303000 nM

Question: Which results are given for MQACPVDAI?
Answer: Kd (HLA-A*02:01 [8]; source organism: Burkholderia orbicola): 8.6 nM; Kd (HLA-A*02:06): 1.3 nM

Question: What does the source list for QSDIAGAIH?
Answer: Kd (HLA-A*01:01; [19]): 1660 nM; Kd (HLA-A*02:01 [1]; [19]): ≥ 20000 nM; Kd (HLA-A*03:01; [19]): ≥ 20000 nM; Kd (HLA-A*11:01 [7]; [19]): ≥ 20000 nM; Kd (HLA-A*24:02 [6]; [19]): ≥ 20000 nM; Kd (HLA-A*26:01): ≥ 20000 nM; Kd (HLA-A*31:01 [2]; [19]): ≥ 20000 nM; Kd (HLA-A*69:01; [19]): ≥ 20000 nM; Kd (HLA-B*07:02 [3]; [19]): ≥ 20000 nM; Kd (HLA-B*15:01 [4]; [19]): ≥ 20000 nM; Kd (HLA-B*15:09; source organism: Vibrio vulnificus CMCP6): ≥ 20000 nM; Kd (HLA-B*27:05; [19]): ≥ 20000 nM; Kd (HLA-B*40:01; [19]): ≥ 20000 nM; Kd (HLA-B*44:02; [19]): ≥ 20000 nM; Kd (HLA-B*46:01; [19]): ≥ 20000 nM; Kd (HLA-B*58:01; [19]): ≥ 20000 nM

Question: RAMKALSSI was tested. Which Kd (HLA-C*05:01; [20]) did it give?
Answer: ≥ 20000 nM

Question: And the Kd (HLA-C*14:02; [20])?
Answer: 413 nM

Question: What about the Kd (HLA-C*15:02; [20]) of the same sequence?
Answer: 17 nM

Question: And the Kd (HLA-B*07:02 [9])?
Answer: 12.6 nM

Question: What about the Kd (HLA-B*51:01) of the same sequence?
Answer: 253 nM

Question: Which results are given for RGVRLHPLA?
Answer: IC50 (HLA-A*02:01 [10]): ≥ 87800 nM; IC50 (HLA-B*08:01; [21]): ≥ 242000 nM

Question: Which IC50 (HLA-A*02:01 [5]; source organism: Hepatitis B virus subtype adw2) does the source give for SAICSVVRR here?
Answer: 1430 nM

Question: Which IC50 (HLA-A*02:01 [10]) does the source give for SFKAALSSL here?
Answer: ≥ 358000 nM

Question: What about the IC50 (HLA-A*24:02 [11]) of the same sequence?
Answer: 668 nM

Question: And the IC50 (HLA-B*08:01; [21])?
Answer: 45600 nM

Question: What about the IC50 (HLA-B*15:01 [12]) of the same sequence?
Answer: 15200 nM

Question: With SGKNIKRTL as the sequence, how does the IC50 (HLA-B*08:01; [21]) read?
Answer: 63600 nM

Question: SVAHSAYEL was tested. Which Kd (HLA-A*68:02) did it give?
Answer: ≤ 0.1 nM

Question: TVFYNIPPM was tested. Which Kd (HLA-C*14:02; source organism: Human herpesvirus 4 strain B95-8) did it give?
Answer: 3 nM

Question: VLEKGIPTL was tested. Which IC50 (HLA-A*02:01 [5]; source organism: Rhinovirus A) did it give?
Answer: 200 nM

Question: For VRKCLQLIF, which Kd (HLA-C*07:02; source organism: Saccharomyces cerevisiae) is on record?
Answer: 53 nM

Question: Which results are given for WMMAMRYPI?
Answer: Kd (HLA-C*05:01; [22]): ≥ 20000 nM; Kd (HLA-C*06:02): ≥ 20000 nM; Kd (HLA-C*07:02; [22]): 1840 nM; Kd (HLA-A*02:01 [8]; [22]): 0.2 nM

Question: For YTYDLAEYR, which Kd (HLA-A*11:01 [13]) is on record?
Answer: 21.3 nM

Question: And the Kd (HLA-A*31:01 [14])?
Answer: 8.3 nM

Question: What about the Kd (HLA-A*68:23) of the same sequence?
Answer: ≤ 0.1 nM

Question: What about the Kd (HLA-B*15:42) of the same sequence?
Answer: ≥ 5000 nM

Question: What about the Kd (HLA-B*45:06) of the same sequence?
Answer: ≥ 5000 nM

Question: And the Kd (HLA-B*83:01)?
Answer: ≥ 5000 nM
